From publication PMC8677862, “Substrate binding modes of purine and pyrimidine nucleotides to human ecto-5′-nucleotidase (CD73) and inhibition by their bisphosphonic acid derivatives” (Purinergic Signalling, 2021) come the findings set out here.

Substrate in the data set: Nc1ncnc2c1ncn2[C@@H]1O[C@H](COP(=O)(O)O)[C@@H](O)[C@H]1O
Nature of the data set: purified protein, by the assay type. Type of data set: biochemical, human. The following applies: other: AMP 5-200 μM, 1.25 ng CD73; pH 7.5; 25.0 °C. The method, then: In this study, enzyme activity and inhibition data was characterised using a modified malachite green assay. Each assay consisted of reaction buffer A (50 mM Tris–HCl pH 7.5, 100 mM NaCl, 1 mM MgCl2) to which the appropriate substrate and/or inhibitors (see Table S1) were added. Dissolved compounds were immediately used for the inhibition assays. The reactions were generally initiated by the addition of protein. The protein concentrations, substrates and inhibitors used for the various experiments are detailed below. In all experiments, reactions were monitored over a 10-min period during which samples were taken at regular intervals. At each desired time point, a malachite green/molybdate (1:1) solution was added to the sample, which simultaneously terminated the assay and also allowed the detection of the produced phosphate ions. These reaction mixtures were incubated at 25 °C for 25 min, followed by measurement of the absorbance at 620 nm. […]
The specific activity (μmol Pi/min/mg protein) was calculated from the initial reaction rates and was used to determine when the protein refolding process had reached completion. […] Kinetic values were determined by fitting the Michaelis–Menten equation to the initial reaction rates using GraphPad Prism (GraphPad Software, La Jolla, CA, USA). […]

B1: human CD73 (Homo sapiens; K145S/K147S/K478S/N311D/N333D/N403D/N53D/T376A) (protein)
chain: WELTILHTNDVHSRLEQTSEDSSKCVDASRCMGGVARLFTKVQQIRRAEPNVLLLDAGDQYQGTIWFTVYKGAEVAHFMNALRYDAMALGNHEFDNGVEGLIEPLLKEAKFPILSANISASGPLASQISGLYLPYKVLPVGDEVVGIVGYTSKETPFLSNPGTNLVFEDEITALQPEVDKLKTLNVNKIIALGHSGFEMDKLIAQKVRGVDVVVGGHSNTFLYTGNPPSKEVPAGKYPFIVTSDDGRKVPVVQAYAFGKYLGYLKIEFDERGNVISSHGNPILLDSSIPEDPSIKADINKWRIKLDDYSTQELGKTIVYLDGSSQSCRFRECNMGNLICDAMINNNLRHADEMFWNHVSMCILNGGGIRSPIDERNDGTITWENLAAVLPFGGTFDLVQLKGSTLKKAFEHSVHRYGQSTGEFLQVGGIHVVYDLSRKPGDRVVKLDVLCTSCRVPSYDPLKMDEVYKVILPNFLANGGDGFQMIKDELLRHDSGDQDINVVSTYISKMKVIYPAVEGRIKFS
notes: His6 (C); made in house
The Km is the concentration of substrate that gives half-maximal velocity. As to B1, the Km came out at 10.5 µM and the Vmax is reported as 301.2 U/mg.
